Reference: patent US20120316071A1 (published 2012)

T1: rHuman Erythropoietin R/Fc Chimera, CF (R&D Systems Cat#963-ER) (human, UniProt P19235 25-250)
T1 construct: Bought recombinant Fc chimera; also called EPO R; EPO R/Fc; Fc part of the bought chimera not given
T1 sequence (looked up): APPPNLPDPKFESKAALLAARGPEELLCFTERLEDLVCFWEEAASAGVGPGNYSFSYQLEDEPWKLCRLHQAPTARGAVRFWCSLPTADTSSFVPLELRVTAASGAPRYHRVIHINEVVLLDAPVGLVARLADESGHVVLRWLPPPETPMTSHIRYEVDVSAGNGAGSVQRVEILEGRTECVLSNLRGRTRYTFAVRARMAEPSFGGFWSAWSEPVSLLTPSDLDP

T2: rHuman Erythropoietin R/Fc Chimera, CF (human, UniProt P19235 25-250)
T2 construct: Bought from R&D Systems; also called EPO R; EPO R/Fc; not shown: Fc of the bought chimera
T2 sequence (looked up): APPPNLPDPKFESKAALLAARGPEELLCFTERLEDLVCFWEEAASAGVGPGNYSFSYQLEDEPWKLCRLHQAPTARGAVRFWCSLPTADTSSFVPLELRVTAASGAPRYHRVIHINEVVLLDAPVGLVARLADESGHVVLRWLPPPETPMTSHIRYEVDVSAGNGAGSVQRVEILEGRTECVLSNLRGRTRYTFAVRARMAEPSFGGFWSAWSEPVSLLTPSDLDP


Key:
[1] = target: T3, Recombinant Human DLL4 (R&D Systems Cat#1506-D4/CF) (human, UniProt Q9NR61 27-524); assay: ECL multispot (MSD) assay, antigen spotted on plate, 10 nM Fab;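 further: bound Fab detected with a TAG-labelled detection antibody (1 h, 20 °C), electrochemiluminescence read and compared with each well's blank, signal/blank of 4 or above scored as hit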
T3 construct: Bought recombinant protein; also called delta-like protein 4; rHuman DLL4

[2] = target: T4, rHuman IGF-1 sR, CF (R&D Systems Cat#391-GR) (human, UniProt P08069 31-932); assay: as above
T4 construct: Bought soluble receptor; also called insulin-like growth factor-1 soluble receptor

[3] = target: T5, rHuman Notch-1/Fc Chimera, CF (R&D Systems Cat#3647-TK) (human, UniProt P46531 19-526); assay: as above
T5 construct: Bought recombinant Fc chimera; Fc part of the bought chimera not given

[4] = target: T6, rHuman EGF R/Fc Chimera, CF (R&D Systems Cat#344-ER) (human, UniProt P00533 25-645); assay: as above
T6 construct: Bought recombinant Fc chimera; also called epidermal growth factor receptor; Fc part of the bought chimera not given

[5] = target: T7, rHuman HGF R/c-MET/Fc Chimera, CF (R&D Systems Cat#358-MT/CF) (human, UniProt P08581 25-932); assay: as above
T7 construct: Bought recombinant Fc chimera; also called HGF R/Fc; hepatocyte growth factor receptor; Fc part of the bought chimera not given
T7 sequence (P08581 25-932, change not shown): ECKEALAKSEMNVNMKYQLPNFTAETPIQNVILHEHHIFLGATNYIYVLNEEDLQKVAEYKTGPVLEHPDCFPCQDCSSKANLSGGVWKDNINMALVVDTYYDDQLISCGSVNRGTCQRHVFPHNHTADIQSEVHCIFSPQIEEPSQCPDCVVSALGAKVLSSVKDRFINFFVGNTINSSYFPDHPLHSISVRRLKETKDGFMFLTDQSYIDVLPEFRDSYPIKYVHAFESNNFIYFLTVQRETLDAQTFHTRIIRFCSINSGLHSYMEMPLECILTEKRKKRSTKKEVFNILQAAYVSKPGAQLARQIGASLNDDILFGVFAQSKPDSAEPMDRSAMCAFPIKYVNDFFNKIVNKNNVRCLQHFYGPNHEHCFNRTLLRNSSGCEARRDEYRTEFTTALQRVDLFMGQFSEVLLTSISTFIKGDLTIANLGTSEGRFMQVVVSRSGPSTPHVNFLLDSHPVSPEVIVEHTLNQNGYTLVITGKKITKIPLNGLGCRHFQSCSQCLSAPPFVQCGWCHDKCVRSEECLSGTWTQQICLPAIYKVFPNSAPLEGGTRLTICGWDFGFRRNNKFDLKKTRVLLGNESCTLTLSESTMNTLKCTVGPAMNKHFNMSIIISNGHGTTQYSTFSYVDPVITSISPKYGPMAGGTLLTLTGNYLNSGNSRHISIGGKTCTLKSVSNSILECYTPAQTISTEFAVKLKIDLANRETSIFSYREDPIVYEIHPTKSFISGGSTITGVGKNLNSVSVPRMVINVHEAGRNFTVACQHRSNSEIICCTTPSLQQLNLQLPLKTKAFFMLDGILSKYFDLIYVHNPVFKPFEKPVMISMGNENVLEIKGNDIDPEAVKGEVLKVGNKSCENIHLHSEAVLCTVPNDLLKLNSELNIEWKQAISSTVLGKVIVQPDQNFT

[6] = target: T8, rHuman ErbB2/Fc Chimera, CF (R&D Systems Cat#1129-ER) (human, UniProt P04626 23-652); assay: as above
T8 construct: Bought recombinant Fc chimera; also called human epidermal growth factor 2 receptor; Fc part of the bought chimera not given

[7] = target: T9, rHuman P-Cadherin/Fc Chimera, CF (R&D Systems Cat#861-PC) (human, UniProt P22223 108-654); assay: as above
T9 construct: Bought recombinant Fc chimera; Fc part of the bought chimera not given

[8] = target: T10, rHuman CD44/Fc Chimera, CF (R&D Systems Cat#3660-CD) (human, UniProt P16070 21-220); assay: as above
T10 construct: Bought recombinant Fc chimera; Fc part of the bought chimera not given

[9] = target: T1, rHuman Erythropoietin R/Fc Chimera, CF …; assay: as above
[10] = target: T2, rHuman Erythropoietin R/Fc Chimera, CF; assay: ECL Multispot (MSD) assay; antigen spotted on plate, Fab in solution;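 further: fab bound 1 h at 20 °C, detected by TAG-labelled antibody electrochemiluminescence, signal relative to each well's blank, ratio of 4 or more marks a hit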
[11] = target: T11, rHuman EGF R/Fc Chimera, CF (human, UniProt P00533 25-645); assay: as above
T11 construct: Bought from R&D Systems; also called epidermal growth factor receptor; not shown: Fc of the bought chimera

[12] = target: T12, rHuman HGF R/c-MET/Fc Chimera, CF (human, UniProt P08581 25-932); assay: as above
T12 construct: Bought from R&D Systems; also called HGF R/Fc; hepatocyte growth factor receptor; not shown: Fc of the bought chimera
T12 sequence (P08581 25-932, change not shown): as above

[13] = target: T13, rHuman CD44/Fc Chimera, CF (human, UniProt P16070 21-220); assay: as above
T13 construct: Bought from R&D Systems; not shown: Fc of the bought chimera

[14] = target: T14, rHuman P-Cadherin/Fc Chimera, CF (human, UniProt P22223 108-654); assay: as above
T14 construct: Bought from R&D Systems; not shown: Fc of the bought chimera

[15] = target: T15, rHuman ErbB2/Fc Chimera, CF (human, UniProt P04626 23-652); assay: as above
T15 construct: Bought from R&D Systems; also called human epidermal growth factor 2 receptor; not shown: Fc of the bought chimera

[16] = target: T16, rHuman IGF-1 sR, (IGF-1 sR), CF (human, UniProt P08069 31-932); assay: as above
T16 construct: Bought from R&D Systems; also called insulin-like growth factor-1 soluble receptor

[17] = target: T17, rHuman Notch-1/Fc Chimera, CF (human, UniProt P46531 19-526); assay: as above
T17 construct: Bought from R&D Systems; not shown: Fc of the bought chimera

Recombinant Human DLL4 = target: T18, Recombinant Human DLL4 (human, UniProt Q9NR61 27-524); assay: as above
T18 construct: Bought from R&D Systems; also called delta-like protein 4; rHuman DLL4

Binder	ECL signal [1]	ECL signal [2]	ECL signal [3]	ECL signal [4]	ECL signal [5]	ECL signal [6]	ECL signal [7]	ECL signal [8]	ECL signal [9]	ECL signal [10]	ECL signal [11]	ECL signal [12]	ECL signal [13]	ECL signal [14]	ECL signal [15]	ECL signal [16]	ECL signal [17]	ECL signal (Recombinant Human DLL4)
Fab VH1-46_IGHD6-6*01_IGHJ1*01 S102A/S103P/S104F/H111F G55A & L6_IGKJ1*01 (Fab, V domains shown, Fab (CH1 with His6/Flag tags from Plasmid A, kappa CL from Plasmid C); also called APFF G55A) VH: QVQLVQSGAEVKKPGASVKVSCKASGYTFTSYYMHWVRQAPGQGLEWMGIINPSAGSTSYAQKFQGRVTMTRDTSTSTVYMELSSLRSEDTAVYYCAREEYAPFSAEYFQFWGQGTLVTVSS VL: not shown	14500	392	381	217	221	474	426	365	305	–	–	–	–	–	–	–	–	–
Fab VH1-46_IGHD6-6*01_IGHJ1*01 S102A/S103P/S104F/H111F G56A & L6_IGKJ1*01 (Fab, V domains shown, Fab (CH1 with His6/Flag tags from Plasmid A, kappa CL from Plasmid C); also called APFF G56A) VH: QVQLVQSGAEVKKPGASVKVSCKASGYTFTSYYMHWVRQAPGQGLEWMGIINPSGASTSYAQKFQGRVTMTRDTSTSTVYMELSSLRSEDTAVYYCAREEYAPFSAEYFQFWGQGTLVTVSS VL: not shown	189000	422	331	355	313	279	214	330	466	–	–	–	–	–	–	–	–	–
Fab VH1-46_IGHD6-6*01_IGHJ1*01 S102A/S103P/S104F/H111F I50A & L6_IGKJ1*01 (Fab, V domains shown, Fab (CH1 with His6/Flag tags from Plasmid A, kappa CL from Plasmid C); also called APFF I50A) VH: QVQLVQSGAEVKKPGASVKVSCKASGYTFTSYYMHWVRQAPGQGLEWMGAINPSGGSTSYAQKFQGRVTMTRDTSTSTVYMELSSLRSEDTAVYYCAREEYAPFSAEYFQFWGQGTLVTVSS VL: not shown	2670	247	297	402	301	369	313	326	252	–	–	–	–	–	–	–	–	–
Fab VH1-46_IGHD6-6*01_IGHJ1*01 S102A/S103P/S104F/H111F I51A & L6_IGKJ1*01 (Fab, V domains shown, Fab (CH1 with His6/Flag tags from Plasmid A, kappa CL from Plasmid C); also called APFF I51A) VH: QVQLVQSGAEVKKPGASVKVSCKASGYTFTSYYMHWVRQAPGQGLEWMGIANPSGGSTSYAQKFQGRVTMTRDTSTSTVYMELSSLRSEDTAVYYCAREEYAPFSAEYFQFWGQGTLVTVSS VL: not shown	159000	383	312	373	440	344	144	391	380	–	–	–	–	–	–	–	–	–
Fab VH1-46_IGHD6-6*01_IGHJ1*01 S102A/S103P/S104F/H111F N52A & L6_IGKJ1*01 (Fab, V domains shown, Fab (CH1 with His6/Flag tags from Plasmid A, kappa CL from Plasmid C); also called APFF N52A) VH: QVQLVQSGAEVKKPGASVKVSCKASGYTFTSYYMHWVRQAPGQGLEWMGIIAPSGGSTSYAQKFQGRVTMTRDTSTSTVYMELSSLRSEDTAVYYCAREEYAPFSAEYFQFWGQGTLVTVSS VL: not shown	169000	362	383	340	369	378	353	362	468	–	–	–	–	–	–	–	–	–
Fab VH1-46_IGHD6-6*01_IGHJ1*01 S102A/S103P/S104F/H111F P53A & L6_IGKJ1*01 (Fab, V domains shown, Fab (CH1 with His6/Flag tags from Plasmid A, kappa CL from Plasmid C); also called APFF P53A) VH: QVQLVQSGAEVKKPGASVKVSCKASGYTFTSYYMHWVRQAPGQGLEWMGIINASGGSTSYAQKFQGRVTMTRDTSTSTVYMELSSLRSEDTAVYYCAREEYAPFSAEYFQFWGQGTLVTVSS VL: not shown	151000	374	393	439	337	203	390	378	427	–	–	–	–	–	–	–	–	–
Fab VH1-46_IGHD6-6*01_IGHJ1*01 S102A/S103P/S104F/H111F S57A & L6_IGKJ1*01 (Fab, V domains shown, Fab (CH1 with His6/Flag tags from Plasmid A, kappa CL from Plasmid C); also called APFF S57A) VH: QVQLVQSGAEVKKPGASVKVSCKASGYTFTSYYMHWVRQAPGQGLEWMGIINPSGGATSYAQKFQGRVTMTRDTSTSTVYMELSSLRSEDTAVYYCAREEYAPFSAEYFQFWGQGTLVTVSS VL: not shown	112000	417	365	302	388	304	232	439	477	–	–	–	–	–	–	–	–	–
Fab VH1-46_IGHD6-6*01_IGHJ1*01 S102A/S103P/S104F/H111F T58A & L6_IGKJ1*01 (Fab, V domains shown, Fab (CH1 with His6/Flag tags from Plasmid A, kappa CL from Plasmid C); also called APFF T58A) VH: QVQLVQSGAEVKKPGASVKVSCKASGYTFTSYYMHWVRQAPGQGLEWMGIINPSGGSASYAQKFQGRVTMTRDTSTSTVYMELSSLRSEDTAVYYCAREEYAPFSAEYFQFWGQGTLVTVSS VL: not shown	47400	271	289	384	304	320	294	318	329	–	–	–	–	–	–	–	–	–
Fab VH1-46_IGHD6-6*01_IGHJ1*01 S102A/S103P/S104F/H111F (APFF) & L6_IGKJ1*01 S28G (Fab, V domains shown, Fab made in E. coli; the variable domains were cloned into Plasmid A (CH1, His and Flag tags) and Plasmid C (kappa CL); also called APFF / S28G) VH: QVQLVQSGAEVKKPGASVKVSCKASGYTFTSYYMHWVRQAPGQGLEWMGIINPSGGSTSYAQKFQGRVTMTRDTSTSTVYMELSSLRSEDTAVYYCAREEYAPFSAEYFQFWGQGTLVTVSS VL: EIVLTQSPATLSLSPGERATLSCRASQGVSSYLAWYQQKPGQAPRLLIYDASNRATGIPARFSGSGSGTDFTLTISSLEPEDFAVYYCQQRSNWPPWTFGQGTKVEIKR	–	–	–	–	–	–	–	–	–	494	360	333	436	491	334	360	324	183000
Fab VH1-46_IGHD6-6*01_IGHJ1*01 S102A/S103P/S104F/H111F (APFF) & L6_IGKJ1*01 (Fab, V domains shown, Fab made in E. coli; the variable domains were cloned into Plasmid A (CH1, His and Flag tags) and Plasmid C (kappa CL); also called APFF / parent; H:APFF & L:wt) VH: QVQLVQSGAEVKKPGASVKVSCKASGYTFTSYYMHWVRQAPGQGLEWMGIINPSGGSTSYAQKFQGRVTMTRDTSTSTVYMELSSLRSEDTAVYYCAREEYAPFSAEYFQFWGQGTLVTVSS VL: not shown	–	–	–	–	–	–	–	–	–	–	406	432	–	368	333	386	–	182000
Fab VH1-46_IGHD6-6*01_IGHJ1*01 S102A/S103P/S104F/H111F (APFF) & L6_IGKJ1*01 S28A (Fab, V domains shown, Fab made in E. coli; the variable domains were cloned into Plasmid A (CH1, His and Flag tags) and Plasmid C (kappa CL); also called APFF / S28A) VH: QVQLVQSGAEVKKPGASVKVSCKASGYTFTSYYMHWVRQAPGQGLEWMGIINPSGGSTSYAQKFQGRVTMTRDTSTSTVYMELSSLRSEDTAVYYCAREEYAPFSAEYFQFWGQGTLVTVSS VL: EIVLTQSPATLSLSPGERATLSCRASQAVSSYLAWYQQKPGQAPRLLIYDASNRATGIPARFSGSGSGTDFTLTISSLEPEDFAVYYCQQRSNWPPWTFGQGTKVEIKR	–	–	–	–	–	–	–	–	–	424	351	377	502	521	348	378	440	157000
